Source: patent publication US20130171217A1, “ENZYMATIC PERACID GENERATION FOR USE IN SKIN CARE PRODUCTS” (E I DU PONT DE NEMOURS AND COMPANY, priority 2010, published 2013)

Assays:
[1] = One-step procedure on hair tresses, tress tensile strength; details: 10 μg/mL HC1121, pH 6.6, 50 mM phosphate, 8 cycles
[2] = Compatibility of perhydrolase with commercial moisturizer lotion, PAA indicator strip; assay type: physicochemical; details: ~0.1 mg/mL in lotion, room temperature (~21° C.)
Description: Lotion “A” was prepared by mixing 0.7667 g of SUAVE® Advanced Therapy Moisturizer (Lot#12148JU41, Unilever, CT) with 40 μL of perhydrolase fusion C277S-HC263 (10 mg/mL) in a 2-mL microfuge using an overhead mixer at 200 rpm for about 3 min. The concentration of C277S-HC263 (SEQ ID NO: 288) was about 0.1 mg/mL in lotion A.
Two control samples, i.e., A-control1 and A-control2, were prepared by replacing perhydrolase (C277S-HC263; SEQ ID NO: 288) with same volume of DI water and 50 mM phosphate buffer (pH 8), respectively.
Solution “B” was made by combining 44 μl of triacetin, 899 μL of 50 mM, pH 8, phosphate buffer, and 57 μL of H2O2 (30 wt %). Solution B was freshly made every time just before running the PAA indicator strip test.
After a predetermined time, 50 μl of lotion “A” and 50 μl of solution “B” were mixed gently for about 1 min. PAA indicator strips were used to test for the presence of PAA in the mixture as described in Example 10.

[3] = One-step procedure on hair tresses, hair color loss ΔE
Description: The hair tresses in these examples were cut from the stock medium brown hair swatches that were custom made by International Hair Importers (Glendale, N.Y.). Each hair tress was glued at one end, and cut at 5 mm width and 4 cm long (excluding the glued portion), with 100+/−20 mg net hair weight. For each test condition, triplicates of hair tresses were used. In the one-step procedure, each hair tress was placed in a clean plastic weighing tray (VWR, Cat. #12577-053), then 1 mL of the perhydrolase HC1121 solution in a buffer was applied to the hair tress, and was rubbed into the hair tress with an applicator. Then calculated amount of triacetin and 30% H2O2 were applied onto each hair tress and rubbed into the hair tress which gave 200 mM triacetin and 100 mM H2O2. The hair tress sat in this reaction mixture for 30 min, before being washed thoroughly with tap water followed by paper towel dry. This completed a 30 min treatment cycle. The treatment cycle was repeated 16 times. Hair tress became lighter-colored and weakened during the treatment. After final rinse and air-drying, tensile strength tests as described in Example 25 were conducted on each hair tress to quantify hair weakening. In addition, L*, a*, b* color measurements were taken for each hair sample to quantify hair color loss, and L*, a*, b* color measurements were also taken for untreated hair as a reference for ΔE color difference calculations. ΔE was calculated in the standard way as ΔE=((L*−L*ref)^2+(a*−a*ref)^2+(b*−b*ref)^2)^0.5. […] At pH 6, when 30 μg/mL HC1121 was used which gave 0.3 μg/mg hair E/H ratio, the tensile strength of treated hair tress reduced to 1.9 N/mg hair, approaching 1.5 N/mg hair, the benchmark strength of hair treated with NAIR® cream for 5 min. At pH 7, when 30 μg/mL HC1121 was used, the tensile strength of treated hair tress was 0.3 N/mg hair, much less than the 1.5 N/mg hair benchmark. Therefore, proper concentration of enzyme at proper pH could weaken hair effectively. The measured hair color loss for treated hair tresses correlated well with the weakening of hair: the greater hair weakening, the greater hair color loss.
Hair tresses were treated using the same procedure as described in Example 40, except that SLES (sodium laurel ether sulfate, a common soap ingredient) wash step was added before tap water rinse step each cycle to imitate daily shower in real life, where 1 mL 1% SLES (“RHODAPEX ES 2K” by Rhodia Inc., Cranbury, N.J.) was transferred onto hair tress and the hair tress was rubbed with gloved hand on the palm for 30 seconds. The treatment parameters for this example (enzyme concentration, pH and buffer concentration, and treatment cycle time) were shown in Table 34. For the 24 hr treatment cycle, the hair tress sat in the mixture for 1 hr before being taken out to a dry dish. The hair tress sat dry for 23 hr before being washed with 1 mL 1% SLES followed by tap water rinse and paper towel dry. For the 30 min treatment cycles, the treatment cycle was repeated 16 times. […] After final rinse and air-drying for each hair tress, tensile strength test and color measurement as described in Example 40 were conducted on each hair tress to quantify hair weakening and hair color loss. […] Hair tensile strength ranged from 0.3 to 0.8 N/mg hair, much less than the 1.5 N/mg hair tensile strength benchmark. Stronger hair weakening occurred at higher buffer concentration and longer treatment time. […] Therefore, it was anticipated that even lower enzyme concentration could be used to reach benchmark hair weakening at slightly higher pH (pH 6.6 compared to pH 6 in Example 40), higher buffer concentration and longer treatment time.
Hair tresses were treated using the same procedure for 24 hr treatment cycles as described in Example 41 using 10 μg/mL HC1121 at pH 6.6 and substrates at various concentrations. […]

[4] = 200 mM TA/200 mM H2O2, 24 hr/cycle

B1: C277S-HC263: C277S variant of Thermotoga maritima perhydrolase fused via a flexible linker to hair-binding domain HC263 (protein)
chain: MAFFDLPLEELKKYRPERYEEKDFDEFWEETLAESEKFPLDPVFERMESHLKTVEAYDVTFSGYRGQRIKGWLLVPKLEEEKLPCVVQYIGYNGGRGFPHDWLFWPSMGYICFVMDTRGQGSGWLKGDTPDYPEGPVDPQYPGFMTRGILDPRTYYYRRVFTDAVRAVEAAASFPQVDQERIVIAGGSQGGGIALAVSALSKKAKALLCDVPFLCHFRRAVQLVDTHPYAEITNFLKTHRDKEEIVFRTLSYFDGVNFAARAKIPALFSVGLMDNISPPSTVFAAYNYYAGPKEIRIYPYNNHEGGGSFQAVEQVKFLKKLFEKGGPGSGGAGSPGSAGGPGSPSAQSQLPDKHSGLHERAPQRYGPEPEPEPEPIPEPPKEAPVVIEKPKPKPKPKPKPPAHDHKNQKETHQRHAAGSGGGGSPHHHHHH
- Strength N/mg Hair, replicate1 [1, 4]: 1.04 N/mg Hair
- Strength N/mg Hair, replicate2 [1, 4]: 0.57 N/mg Hair
- Strength N/mg Hair, replicate2 ([1]; 500 mM TA/500 mM H2O2, 24 hr/cycle): 0.55 N/mg Hair
- time perhydrolase activity retained in SUAVE® moisturizer [2]: at least 30 days
- Hair color loss avg ΔE ([3]; 10 μg/mL HC1121, pH 6.6, 50 mM phosphate, 200 mM TA/100 mM H2O2, 24 hr/cycle, 8 cycles): 13.8
- Hair color loss avg ΔE ([3]; 10 μg/mL HC1121, pH 6.6, 50 mM phosphate, 200 mM TA/200 mM H2O2, 24 hr/cycle, 8 cycles): 16.7
- Hair color loss avg ΔE ([3]; 10 μg/mL HC1121, pH 6.6, 50 mM phosphate, 200 mM TA/300 mM H2O2, 24 hr/cycle, 8 cycles): 20.1
- Hair color loss avg ΔE ([3]; 10 μg/mL HC1121, pH 6.6, 50 mM phosphate, 200 mM TA/500 mM H2O2, 24 hr/cycle, 8 cycles): 21.8
- Hair color loss avg ΔE ([3]; 10 μg/mL HC1121, pH 6.6, 50 mM phosphate, 500 mM TA/500 mM H2O2, 24 hr/cycle, 8 cycles): 22.3
- Hair color loss avg ΔE ([3]; one-step, 5 μg/mL enzyme, pH 6, 30 min × 16): 5.2
- Hair color loss avg ΔE ([3]; one-step, 15 μg/mL enzyme, pH 6, 30 min × 16): 6.8
- Hair color loss avg ΔE ([3]; one-step, 30 μg/mL enzyme, pH 6, 30 min × 16): 8.7
- Hair color loss avg ΔE ([3]; one-step, 30 μg/mL enzyme, pH 7, 30 min × 16): 16.6
- Hair color loss avg ΔE ([3]; one-step, pH 6.6, 50 mM buffer, 30 min/cycle X 16 cycles, SLES wash each cycle): 17.7
- Hair color loss avg ΔE ([3]; one-step, pH 6.6, 50 mM buffer, 24 hr/cycle X 7 cycles, SLES wash each cycle): 15.6
- Hair color loss avg ΔE ([3]; one-step, pH 6.6, 100 mM buffer, 30 min/cycle X 16 cycles, SLES wash each cycle): 24.2
